This passage reports Kd results from PMC5983119.

Data set [1] deals with TDP-43 M323K (LCDmut) M323K (mouse) (UniProt Q921F2). The data set can be described thus: EMSA. The note with it: 5% acrylamide gel, protein 0.25-2 ug with 32P RNA in unspecified binding buffer, salt, pH and temperature not given. Set-up: unit not given beside the values.
For the next data set, the target named is TDP-43 WT (mouse) (UniProt Q921F2). The data set can be described thus: EMSA. The note with it: 5% acrylamide gel, protein 0.25-2 ug with 32P RNA in unspecified binding buffer, salt, pH and temperature not given. Set-up: unit not given beside the values.

On to UGUGUGUGUGUG [(UG)6 RNA], for which the figures for the Kd (in data set [1]; with TDP-43 WT (mouse)) were 32200 and 27600, respectively.
